From US20250066745A1, “MUTANTS AND USE THEREOF” (BGI SHENZHEN, priority 2021, published 2025)

What was measured:
[1] = Luminescence activity assay of purified Gaussia luciferase mutants on coelenterazine derivative ZS2; assay type: biochemical; design: key to Activity of mutant relative to wild-type Gaussia luciferase without the signal peptide: ratio of mutant luminescence intensity to wild-type Gaussia luciferase; details: Substrate ZS2 (Table 16)
Experimental: (§1) In this Example, the protein concentration was determined with a BCA quantitative kit (Thermo Scientific™ Pierce™ BCA Protein Assay Kit) accurately. The purified luciferase obtained in Example 5 was diluted with diluent (50 mM Tris-HCl, pH 8.0, 100 mM NaCl, 0.1% (v/v) Tween-20) to 1 μg/mL. The diluted luciferase, taken for 10 μL, was moved into a black 96-well plate, then added with 90 μL of the substrates coelenterazine, fluoro-coelenterazine or coelenterazine derivative ZS2 (purchased from Biolab) which was diluted into 100 μM with the same diluent, and the luminescence intensity of the plate was read with a self-luminescence module of a microplate reader. The mutation site of the mutant, the measured luminescence intensity, the ratio of luminescence intensities of the advantageous mutants to the wild-type Gaussia luciferase without the signal peptide having the sequence shown in SEQ ID NO: 3 are shown in Table 15. The results of catalytic activity assay of the advantageous mutants relative to the wild-type Gaussia luciferase without the signal peptide having the sequence shown in SEQ ID NO: 3 on substrate coelenterazine are shown in FIG. 6. […] The results of catalytic activity assay of the advantageous mutants relative to the wild-type Gaussia luciferase without the signal peptide having the sequence shown in SEQ ID NO: 3 on substrate fluoro-coelenterazine are shown in FIG. 7.
(§2) The new mutant library constructed in Example 7 was screened and tested for substrate specificity. Expression and purification schemes were the same as that in Example 5, and the activity assay scheme was the same as that in Example 6. The respective catalytic activities of combinatorial mutants on coelenterazine, fluoro-coelenterazine or coelenterazine derivative ZS2, and coelenterazine derivative ZS26 (purchased from BIOLAB) were assayed, and comparisons among the substrate specificities of the combinatorial mutants were based on the ratios of catalytic activities on two corresponding substrates.

[2] = Luminescence activity assay of purified Gaussia luciferase mutants on coelenterazine; assay type: biochemical; design: key to Activity of mutant relative to wild-type Gaussia luciferase without the signal peptide: ratio of mutant luminescence intensity to wild-type Gaussia luciferase; details: Substrate CTZ (Table 16)
Experimental: as §1, §2

Row | Molecule | Activity of mutant relative to wild-type Gaussia luciferase without the signal peptide [1] | Activity of mutant relative to wild-type Gaussia luciferase without the signal peptide [2]
1 | V29A A30D V31I A32V S33N L40A: Gaussia luciferase mutant (protein, SIGNAL (1)..(17), Gaussia luciferase mutant) MGVKVLFALICIAVAEAKPTENNEDFNIADIVNNFATTDADADRGKLPGKKLPLEVLKEMEANARKAGCTRGCLICLSHIKCTPKMKKFIPGRCHTYEGDKESAQGGIGEAIVDIPEIPGFKDLEPMEQFIAQVDLCVDCTTGCLKGLANVQCSDLLKKWLPQRCATFASKIQGQVDKIKGAGGD | 1.164 | 1.046
2 | F26C V29L A30D V31L A32V S33G L40I: Gaussia luciferase mutant (protein, SIGNAL (1)..(17), Gaussia luciferase mutant) MGVKVLFALICIAVAEAKPTENNEDCNILDLVGNFATTDIDADRGKLPGKKLPLEVLKEMEANARKAGCTRGCLICLSHIKCTPKMKKFIPGRCHTYEGDKESAQGGIGEAIVDIPEIPGFKDLEPMEQFIAQVDLCVDCTTGCLKGLANVQCSDLLKKWLPQRCATFASKIQGQVDKIKGAGGD | 0.312 | 0.000
3 | F26C V29Y S33G A36I T37E L40T: Gaussia luciferase mutant (protein, SIGNAL (1)..(17), Gaussia luciferase mutant) MGVKVLFALICIAVAEAKPTENNEDCNIYAVAGNFIETDTDADRGKLPGKKLPLEVLKEMEANARKAGCTRGCLICLSHIKCTPKMKKFIPGRCHTYEGDKESAQGGIGEAIVDIPEIPGFKDLEPMEQFIAQVDLCVDCTTGCLKGLANVQCSDLLKKWLPQRCATFASKIQGQVDKIKGAGGD | 1.131 | 0.016
4 | F26A N27D V29R A30G A32E S33G A36P L40A: Gaussia luciferase mutant (protein, SIGNAL (1)..(17), Gaussia luciferase mutant) MGVKVLFALICIAVAEAKPTENNEDADIRGVEGNFPTTDADADRGKLPGKKLPLEVLKEMEANARKAGCTRGCLICLSHIKCTPKMKKFIPGRCHTYEGDKESAQGGIGEAIVDIPEIPGFKDLEPMEQFIAQVDLCVDCTTGCLKGLANVQCSDLLKKWLPQRCATFASKIQGQVDKIKGAGGD | 0.684 | 0.034
5 | V29S A30G V31I A32V S33G A36D T37A: Gaussia luciferase mutant (protein, SIGNAL (1)..(17), Gaussia luciferase mutant) MGVKVLFALICIAVAEAKPTENNEDFNISGIVGNFDATDLDADRGKLPGKKLPLEVLKEMEANARKAGCTRGCLICLSHIKCTPKMKKFIPGRCHTYEGDKESAQGGIGEAIVDIPEIPGFKDLEPMEQFIAQVDLCVDCTTGCLKGLANVQCSDLLKKWLPQRCATFASKIQGQVDKIKGAGGD | 0.142 | 0.000
6 | F26D N27D V290 A30D V31I S33R T37L: Gaussia luciferase mutant (protein) MGVKVLFALICIAVAEAKPTENNEDDDIVDIARNFALTDLDADRGKLPGKKLPLEVLKEMEANARKAGCTRGCLICLSHIKCTPKMKKFIPGRCHTYEGDKESAQGGIGEAIVDIPEIPGFKDLEPMEQFIAQVDLCVDCTTGCLKGLANVQCSDLLKKWLPQRCATFASKIQGQVDKIKGAGGD | 0.213 | 1.110
7 | V29L A30G A32V S33G A36N T37A L40S: Gaussia luciferase mutant (protein, SIGNAL (1)..(17), Gaussia luciferase mutant) MGVKVLFALICIAVAEAKPTENNEDFNILGVVGNFNATDSDADRGKLPGKKLPLEVLKEMEANARKAGCTRGCLICLSHIKCTPKMKKFIPGRCHTYEGDKESAQGGIGEAIVDIPEIPGFKDLEPMEQFIAQVDLCVDCTTGCLKGLANVQCSDLLKKWLPQRCATFASKIQGQVDKIKGAGGD | 1.976 | 0.764
8 | T96P Q163D T167S G174N K178S A182Y G183A: Gaussia luciferase mutant (protein, SIGNAL (1)..(17), Gaussia luciferase mutant) MGVKVLFALICIAVAEAKPTENNEDFNIVAVASNFATTDLDADRGKLPGKKLPLEVLKEMEANARKAGCTRGCLICLSHIKCTPKMKKFIPGRCHPYEGDKESAQGGIGEAIVDIPEIPGFKDLEPMEQFIAQVDLCVDCTTGCLKGLANVQCSDLLKKWLPDRCASFASKIQNQVDSIKGYAGD | 0.273 | 0.007

Now from value to molecule:

Row | Activity of mutant relative to wild-type Gaussia luciferase without the signal peptide [1] | Activity of mutant relative to wild-type Gaussia luciferase without the signal peptide [2] | Molecule
9 | 1.504 | 0.864 | E102K S103T E110A: Gaussia luciferase mutant (protein, SIGNAL (1)..(17), Gaussia luciferase mutant) MGVKVLFALICIAVAEAKPTENNEDFNIVAVASNFATTDLDADRGKLPGKKLPLEVLKEMEANARKAGCTRGCLICLSHIKCTPKMKKFIPGRCHTYEGDKKTAQGGIGAAIVDIPEIPGFKDLEPMEQFIAQVDLCVDCTTGCLKGLANVQCSDLLKKWLPQRCATFASKIQGQVDKIKGAGGD
10 | 0.413 | 1.030 | Q152R Q163T T167S S170N G174K K178S A182Y G183A: Gaussia luciferase mutant (protein, SIGNAL (1)..(17), Gaussia luciferase mutant) MGVKVLFALICIAVAEAKPTENNEDFNIVAVASNFATTDLDADRGKLPGKKLPLEVLKEMEANARKAGCTRGCLICLSHIKCTPKMKKFIPGRCHTYEGDKESAQGGIGEAIVDIPEIPGFKDLEPMEQFIAQVDLCVDCTTGCLKGLANVRCSDLLKKWLPTRCASFANKIQKQVDSIKGYAGD
11 | 0.003 | 0.020 | Q152R S154F Q163D S170T G174N K178T A182Y: Gaussia luciferase mutant (protein, SIGNAL (1)..(17), Gaussia luciferase mutant) MGVKVLFALICIAVAEAKPTENNEDFNIVAVASNFATTDLDADRGKLPGKKLPLEVLKEMEANARKAGCTRGCLICLSHIKCTPKMKKFIPGRCHTYEGDKESAQGGIGEAIVDIPEIPGFKDLEPMEQFIAQVDLCVDCTTGCLKGLANVRCFDLLKKWLPDRCATFATKIQNQVDTIKGYGGD
12 | 0.737 | 0.807 | Q152R T167G S170N K178S A182L G183N: Gaussia luciferase mutant (protein, SIGNAL (1)..(17), Gaussia luciferase mutant) MGVKVLFALICIAVAEAKPTENNEDFNIVAVASNFATTDLDADRGKLPGKKLPLEVLKEMEANARKAGCTRGCLICLSHIKCTPKMKKFIPGRCHTYEGDKESAQGGIGEAIVDIPEIPGFKDLEPMEQFIAQVDLCVDCTTGCLKGLANVRCSDLLKKWLPQRCAGFANKIQGQVDSIKGLNGD
13 | 2.603 | 0.706 | Q163S T167S S170T G174N K178T: Gaussia luciferase mutant (protein, SIGNAL (1)..(17), Gaussia luciferase mutant) MGVKVLFALICIAVAEAKPTENNEDFNIVAVASNFATTDLDADRGKLPGKKLPLEVLKEMEANARKAGCTRGCLICLSHIKCTPKMKKFIPGRCHTYEGDKESAQGGIGEAIVDIPEIPGFKDLEPMEQFIAQVDLCVDCTTGCLKGLANVQCSDLLKKWLPSRCASFATKIQNQVDTIKGAGGD
14 | 0.890 | 0.850 | T167S S170D G174N Q175E K178N A182L: Gaussia luciferase mutant (protein, SIGNAL (1)..(17), Gaussia luciferase mutant) MGVKVLFALICIAVAEAKPTENNEDFNIVAVASNFATTDLDADRGKLPGKKLPLEVLKEMEANARKAGCTRGCLICLSHIKCTPKMKKFIPGRCHTYEGDKESAQGGIGEAIVDIPEIPGFKDLEPMEQFIAQVDLCVDCTTGCLKGLANVQCSDLLKKWLPQRCASFADKIQNEVDNIKGLGGD
